Test results published in publication PMC4805664 (2016).
Square brackets hold non-standard residues; d marks the D form. * marks the point of attachment. DOTA = O=C(O)CN1CCN(CC(=O)O)CCN(CC(=O)*)CCN(CC(=O)O)CC1

Columns and labels:
[1] = molecular target: T1, La-DOTA-c(RGDyK) (also: DOTA as La complex); test: SPR competition
T1 chain: cyclo(RGD[dY]K(DOTA))

[2] = molecular target: T1, La-DOTA-c(RGDyK); test: SPR competition

Ki [1]: 26 nM
IC50 [2]: 33 nM
B1: Integrin alphaVbeta3 (protein)
chain 1: FNLDVDSPAEYSGPEGSYFGFAVDFFVPSASSRMFLLVGAPKANTTQPGIVEGGQVLKCDWSSTRRCQPIEFDATGNRDYAKDDPLEFKSHQWFGASVRSKQDKILACAPLYHWRTEMKQEREPVGTCFLQDGTKTVEYAPCRSQDIDADGQGFCQGGFSIDFTKADRVLLGGPGSFYWQGQLISDQVAEIVSKYDPNVYSIKYNNQLATRTAQAIFDDSYLGYSVAVGDFNGDGIDDFVSGVPRAARTLGMVYIYDGKNMSSLYNFTGEQMAAYFGFSVAATDINGDDYADVFIGAPLFMDRGSDGKLQEVGQVSVSLQRASGDFQTTKLNGFEVFARFGSAIAPLGDLDQDGFNDIAIAAPYGGEDKKGIVYIFNGRSTGLNAVPSQILEGQWAARSMPPSFGYSMKGATDIDKNGYPDLIVGAFGVDRAILYRARPVITVNAGLEVYPSILNQDNKTCSLPGTALKVSCFNVRFCLKADGKGVLPRKLNFQVELLLDKLKQKGAIRRALFLYSRSPSHSKNMTISRGGLMQCEELIAYLRDESEFRDKLTPITIFMEYRLDYRTAADTTGLQPILNQFTPANISRQAHILLDCGEDNVCKPKLEVSVDSDQKKIYIGDDNPLTLIVKAQNQGEGAYEAELIVSIPLQADFIGVVRNNEALARLSCAFKTENQTRQVVCDLGNPMKAGTQLLAGLRFSVHQQSEMDTSVKFDLQIQSSNLFDKVSPVVSHKVDLAVLAAVEIRGVSSPDHVFLPIPNWEHKENPETEEDVGPVVQHIYELRNNGPSSFSKAMLHLQWPYKYNNNTLLYILHYDIDGPMNCTSDMEINPLRIKISSLQTTEKNDTVAGQGERDHLITKRDLALSEGDIHTLGCGVAQCLKIVCQVGRLDRGKSAILYVKSLLWTETFMNKENQNHSYSLKSSASFNVIEFPYKNLPIEDITNSTLVTTNVTWGIQPAPMPV
chain 2: GPNICTTRGVSSCQQCLAVSPMCAWCSDEALPLGSPRCDLKENLLKDNCAPESIEFPVSEARVLEDRPLSDKGSGDSSQVTQVSPQRIALRLRPDDSKNFSIQVRQVEDYPVDIYYLMDLSYSMKDDLWSIQNLGTKLATQMRKLTSNLRIGFGAFVDKPVSPYMYISPPEALENPCYDMKTTCLPMFGYKHVLTLTDQVTRFNEEVKKQSVSRNRDAPEGGFDAIMQATVCDEKIGWRNDASHLLVFTTDAKTHIALDGRLAGIVQPNDGQCHVGSDNHYSASTTMDYPSLGLMTEKLSQKNINLIFAVTENVVNLYQNYSELIPGTTVGVLSMDSSNVLQLIVDAYGKIRSKVELEVRDLPEELSLSFNATCLNNEVIPGLKSCMGLKIGDTVSFSIEAKVRGCPQEKEKSFTIKPVGFKDSLIVQVTFDCDCACQAQAEPNSHRCNNGNGTFECGVCRCGPGWLGSQCECSEEDYRPSQQDECSPREGQPVCSQRGECLCGQCVCHSSDFGKITGKYCECDDFSCVRYKGEMCSGHGQCSCGDCLCDSDWTGYYCNCTTRTDTCMSSNGLLCSGRGKCECGSCVCIQPGSYGDTCEKCPTCPDACTFKKECVECKKFDRGALHDENTCNRYCRDEIESVKELKDTGKDAVNCTYKNEDDCVVRFQYYEDSSGKSILYVVEEPECPKGPD
